According to the supplement of paper PMC9112550, “Optimization of the antimicrobial peptide Bac7 by deep mutational scanning” (BMC Biology, 2022):

test system: Escherichia coli TOP10; assay: shrunken log2 fold change of peptide-encoding DNA abundance (4.5 h post-induction vs induction); higher = less antimicrobial activity (less host growth inhibition); settings: time post-induction: 4.5 h; library: site-saturation at positions 5, 18, 19, 20
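Note: peptides expressed intracellularly from a pBAD plasmid library in pooled LB shake-flask culture, induced with 0.3% L-arabinose, DNA abundance read by NGS, three biological replicates, DESeq2 with apeglm shrinkage.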

| Sequence | shrunken log2 fold change |
| --- | --- |
| RRIRNRPPRLPRPRPRPMKRPRP | 0.0981 |
| RRIRHRPPRLPRPRPRPEGPPRP | -0.0401 |
| RRIRERPPRLPRPRPRPDGYPRP | 0.0107 |
| RRIRVRPPRLPRPRPRPYWPPRP | -0.182 |
| RRIRCRPPRLPRPRPRPASEPRP | 0.49 |
| RRIRMRPPRLPRPRPRPTRAPRP | 1.42 |
| RRIRVRPPRLPRPRPRPEFTPRP | -0.0269 |
| RRIRNRPPRLPRPRPRPVGTPRP | -0.073 |
| RRIRTRPPRLPRPRPRPAVLPRP | 0.153 |
| RRIRYRPPRLPRPRPRPSAFPRP | -0.607 |
| RRIRVRPPRLPRPRPRPWAYPRP | -0.323 |
| RRIRLRPPRLPRPRPRPTAEPRP | 0.16 |
| RRIRRRPPRLPRPRPRPSVRPRP | 0.238 |
| RRIRKRPPRLPRPRPRPKGCPRP | 0.0534 |
| RRIRLRPPRLPRPRPRPITKPRP | 0.00247 |
| RRIRNRPPRLPRPRPRPLIPPRP | -0.208 |
| RRIRGRPPRLPRPRPRPKFTPRP | 0.12 |
| RRIRCRPPRLPRPRPRPVFTPRP | -0.211 |
| RRIRTRPPRLPRPRPRPPFFPRP | 0.253 |
| RRIRNRPPRLPRPRPRPRHSPRP | -0.424 |
| RRIRMRPPRLPRPRPRPRWQPRP | 0.146 |
| RRIRIRPPRLPRPRPRPWEEPRP | -0.04 |
| RRIRLRPPRLPRPRPRPDGWPRP | 0.257 |

| Sequence | shrunken log2 fold change |
| --- | --- |
| RRIRMRPPRLPRPRPRPEEDPRP | 0.0356 |
| RRIRYRPPRLPRPRPRPTDAPRP | -0.0292 |
| RRIRARPPRLPRPRPRPLAKPRP | 0.835 |
| RRIRTRPPRLPRPRPRPQHCPRP | -0.0947 |
| RRIRQRPPRLPRPRPRPCKEPRP | 0.00843 |
| RRIRKRPPRLPRPRPRPYNFPRP | -0.384 |
| RRIRGRPPRLPRPRPRPKTCPRP | 0.206 |
| RRIRFRPPRLPRPRPRPYLVPRP | -0.423 |
| RRIRERPPRLPRPRPRPAMTPRP | 0.0328 |
| RRIRLRPPRLPRPRPRPETQPRP | 0.00473 |
| RRIRPRPPRLPRPRPRPDVGPRP | 0.181 |
| RRIRDRPPRLPRPRPRPVKPPRP | -0.0934 |
| RRIRTRPPRLPRPRPRPSPYPRP | -0.573 |
| RRIRARPPRLPRPRPRPYNEPRP | -0.524 |
| RRIRMRPPRLPRPRPRPWLVPRP | 0.0862 |
| RRIRPRPPRLPRPRPRPLNYPRP | -0.615 |
| RRIRCRPPRLPRPRPRPEMFPRP | 0.00455 |
| RRIRCRPPRLPRPRPRPAHAPRP | 0.373 |
| RRIRIRPPRLPRPRPRPISQPRP | -0.961 |
| RRIRHRPPRLPRPRPRPIEDPRP | 0.0058 |
| RRIRMRPPRLPRPRPRPWQQPRP | -0.0113 |
| RRIRQRPPRLPRPRPRPASRPRP | -0.124 |
| RRIRTRPPRLPRPRPRPYDNPRP | -0.141 |

| Sequence | shrunken log2 fold change |
| --- | --- |
| RRIRSRPPRLPRPRPRPHLFPRP | -0.32 |
| RRIRKRPPRLPRPRPRPYIRPRP | -0.018 |
| RRIRKRPPRLPRPRPRPFPYPRP | -0.135 |
| RRIRKRPPRLPRPRPRPEQVPRP | 0.158 |
| RRIRDRPPRLPRPRPRPESPPRP | 0.000713 |
| RRIRFRPPRLPRPRPRPPHLPRP | -0.0216 |
| RRIRGRPPRLPRPRPRPVIQPRP | 0.0682 |
| RRIRSRPPRLPRPRPRPAYEPRP | 0.00308 |
| RRIRYRPPRLPRPRPRPNAYPRP | -0.212 |
| RRIRVRPPRLPRPRPRPQDWPRP | -0.132 |
| RRIRHRPPRLPRPRPRPFVTPRP | -0.188 |
| RRIRRRPPRLPRPRPRPPAGPRP | 0.753 |
| RRIRTRPPRLPRPRPRPKQWPRP | 0.158 |
| RRIRVRPPRLPRPRPRPWNNPRP | -0.204 |
| RRIRCRPPRLPRPRPRPLEPPRP | 0.0773 |
| RRIRIRPPRLPRPRPRPYYIPRP | -0.552 |
| RRIRVRPPRLPRPRPRPLKPPRP | -0.0393 |
| RRIRTRPPRLPRPRPRPIKAPRP | -0.143 |
| RRIRNRPPRLPRPRPRPCAAPRP | 0.0594 |
| RRIRGRPPRLPRPRPRPWNYPRP | -0.0902 |
| RRIRFRPPRLPRPRPRPLWEPRP | -0.12 |
| RRIRGRPPRLPRPRPRPCTNPRP | 0.247 |
| RRIRCRPPRLPRPRPRPNCYPRP | -0.209 |

| Sequence | shrunken log2 fold change |
| --- | --- |
| RRIRLRPPRLPRPRPRPRYCPRP | -0.357 |
| RRIRPRPPRLPRPRPRPSIAPRP | -0.131 |
| RRIRNRPPRLPRPRPRPQYDPRP | -0.0449 |
| RRIRCRPPRLPRPRPRPKENPRP | 0.192 |
| RRIRERPPRLPRPRPRPSNDPRP | -0.247 |
| RRIRYRPPRLPRPRPRPSFKPRP | -0.806 |
| RRIRWRPPRLPRPRPRPRDKPRP | 0.347 |
| RRIRGRPPRLPRPRPRPLLIPRP | 0.61 |
| RRIRERPPRLPRPRPRPGTNPRP | -0.361 |
| RRIRLRPPRLPRPRPRPYLKPRP | -0.396 |
| RRIRRRPPRLPRPRPRPVPTPRP | 0.472 |
| RRIRPRPPRLPRPRPRPTKSPRP | 0.777 |
| RRIRVRPPRLPRPRPRPGRPPRP | 0.63 |
| RRIRKRPPRLPRPRPRPMCCPRP | -0.178 |
| RRIRERPPRLPRPRPRPQYIPRP | -0.219 |
| RRIRWRPPRLPRPRPRPFPHPRP | 0.29 |
| RRIRARPPRLPRPRPRPGPWPRP | 0.193 |
| RRIRRRPPRLPRPRPRPNLIPRP | -0.221 |
| RRIRSRPPRLPRPRPRPSQCPRP | -0.265 |
| RRIRPRPPRLPRPRPRPAHVPRP | 0.0491 |
| RRIRRRPPRLPRPRPRPNDGPRP | 0.0979 |
| RRIRTRPPRLPRPRPRPGKLPRP | -0.394 |
